T1: hDLL3 ECD-Avi-Fckih (biotinylated extracellular domain of human DLL3, residues 27 to 466, Avi-tag, 3C site, … (human, UniProt Q9NYJ7 27-466, biotinylated at the Avi-tag))
T1 construct: The make-up of the second Fc chain of the knob-into-hole pair is not described; also called bio-DLL3; recombinant human DLL3; not shown: Avi-tag, 3C protease recognition site and Fc knob into hole
T1 sequence: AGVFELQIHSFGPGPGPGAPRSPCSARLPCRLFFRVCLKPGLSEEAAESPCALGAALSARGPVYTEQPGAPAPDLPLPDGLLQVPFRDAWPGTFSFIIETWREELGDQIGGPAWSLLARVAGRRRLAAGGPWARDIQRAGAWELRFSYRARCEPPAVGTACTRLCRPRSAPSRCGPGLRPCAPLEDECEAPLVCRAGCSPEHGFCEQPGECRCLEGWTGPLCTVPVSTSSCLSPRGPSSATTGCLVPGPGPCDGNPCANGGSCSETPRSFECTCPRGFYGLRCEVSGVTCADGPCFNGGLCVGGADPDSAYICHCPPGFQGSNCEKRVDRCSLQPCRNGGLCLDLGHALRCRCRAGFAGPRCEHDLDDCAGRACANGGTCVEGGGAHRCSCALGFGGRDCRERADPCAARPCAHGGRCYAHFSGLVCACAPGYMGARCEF

T2: Human DLL3 expressed on cells (HEK293T-hDLL3, NCI-H82, SHP-77, MC38-hDLL3) (human, UniProt Q9NYJ7 27-618)
T2 construct: also called DLL3 endogenously expressed on human cells
T2 sequence: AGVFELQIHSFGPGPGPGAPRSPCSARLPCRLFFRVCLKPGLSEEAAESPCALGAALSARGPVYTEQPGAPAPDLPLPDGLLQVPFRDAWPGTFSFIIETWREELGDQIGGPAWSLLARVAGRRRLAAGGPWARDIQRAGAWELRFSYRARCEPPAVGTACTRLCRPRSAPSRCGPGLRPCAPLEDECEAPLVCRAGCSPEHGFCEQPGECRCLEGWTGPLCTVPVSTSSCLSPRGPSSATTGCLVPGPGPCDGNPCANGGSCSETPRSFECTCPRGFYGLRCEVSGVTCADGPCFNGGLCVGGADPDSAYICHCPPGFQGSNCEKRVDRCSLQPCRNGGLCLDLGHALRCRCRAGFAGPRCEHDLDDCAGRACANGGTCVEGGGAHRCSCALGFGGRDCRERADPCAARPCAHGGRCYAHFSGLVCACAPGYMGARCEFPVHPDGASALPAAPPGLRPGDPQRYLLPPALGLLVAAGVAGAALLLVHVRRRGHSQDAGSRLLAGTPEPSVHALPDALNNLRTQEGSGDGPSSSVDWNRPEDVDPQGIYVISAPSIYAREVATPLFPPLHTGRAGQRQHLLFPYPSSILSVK


Assays:
[1] = molecular target: Human DLL3 expressed on cells (HEK293T-hDLL3, NCI-H82, SHP-77, MC38-hDLL3) (human) (UniProt Q9NYJ7); test: flow cytometry titration on HEK293T-hDLL3 cells, without HSA
[2] = molecular target: Human DLL3 expressed on cells (HEK293T-hDLL3, NCI-H82, SHP-77, MC38-hDLL3) (human) (UniProt Q9NYJ7); test: flow cytometry titration on HEK293T-hDLL3 cells, with HSA
[3] = molecular target: T1, hDLL3 ECD-Avi-Fckih (biotinylated …); test: SPR (ProteOn), biotinylated hDLL3 ECD-Avi-Fckih on chip, DARPin as analyte, 1:1 Langmuir fit
Procedure: Kinetic binding parameters and binding affinities of two domain (2D) ankyrin repeat proteins comprising an ankyrin repeat domain with binding specificity for DLL3 and an ankyrin repeat domain with binding specificity for serum albumin were determined by surface plasmon resonance (SPR) multi-trace analysis.
In brief, a SPR assay was used to determine the binding kinetics to the target human DLL3. The data were generated using BioRad ProteOn instrument in SPR running buffer (PBS, pH 7.4 containing 0.005% Tween 20®). […] The chip was coated with biotinylated target (bio-DLL3) to reach a signal intensity of 1780 RU. […] Each injection was followed by a regeneration step with 16 mM H₃PO₄ for 18 s. […] The bio-DLL3 target used was as described in U.S. 63/550,951, i.e. the extracellular domain (ECD) of human DLL3 protein (Q9NYJ7, Gene ID: 10683, residues 27 to 466; purchased from Evitria) linked via an Avi-tag (for site-directed biotinylation), followed by a 3C protease recognition site, to a Fc knob into hole (hDLL3 ECD-Avi-Fcₖᵢₕ).

[4] = molecular target: T2, Human DLL3 expressed on cells …; test: flow cytometry titration on HEK293T-hDLL3 cells, without HSA
Procedure: (§1) Cell binding titration assays were performed for selected His-tagged single domain (1 D) and two domain (2D) designed ankyrin repeat proteins to determine binding to human DLL3 expressed on HEK293T-huDLL3 cells in absence and presence of human serum albumin. […] HEK293T-hDLL3 cells are HEK293T cells that were stably transfected to express human DLL3 on their surface.
(§2) In brief, 1×10⁵ cells/well were resuspended in 100 μl DARPin dilution (500 nM, 1:5 serial diluted) and incubated for 1 h at 4° C. Cells were washed twice with PBS and resuspended in 100 μl anti-DARPin antibody (rabbit anti-DARPin 1.4.8) and LIVE/DEAD fixable cell stain (1:1000, Thermo Fisher #L34957). This step was performed in absence and presence of 10 pM Human Serum Albumin (CSL Behring #150570). After incubation and washing, cells were incubated with detection antibody for 30 minutes (Goat […] IgG (H+L), AF647, Thermo Fisher #21445). Cells were fixed (Paraformaldehyde Solution, LucernaChem) and acquired at Attune N×T (Thermo Life Technologies). Raw fcs files were exported and analyzed using FlowJo software. MFI values of live AF647-positive cells were exported from FlowJo and plotted using GraphPad Prism software.

human serum albumin [5] = molecular target: T3, human serum albumin (human, UniProt P02768 25-609); test: SPR (Bruker Sierra SPR-32), HSA on chip, DARPin as analyte, 1:1 Langmuir fit
T3 construct: also called HSA
Procedure: (§3) Similarly, a SPR assay was used to determine the binding kinetics to human or mouse serum albumin. […] All analytes (3-fold dilution ranging from 1000-12.35 nM) were injected in succession for 240 s (25 μl/min) and dissociation was recorded for 600 s (25 μl/min).

mouse serum albumin [6] = molecular target: T4, mouse serum albumin (mouse, UniProt P07724 25-608); test: SPR (Bruker Sierra SPR-32), MSA on chip, DARPin as analyte, 1:1 Langmuir fit
T4 construct: also called MSA
Procedure: as §3

[7] = molecular target: T2, Human DLL3 expressed on cells …; test: flow cytometry titration on NCI-H82 cells (endogenous DLL3), with 10 uM HSA
Procedure: (§4) Furthermore, cell binding titration assays were also performed with selected two domain (2D) designed ankyrin repeat proteins to determine binding to human cells expressing DLL3 endogenously, in absence and presence of human serum albumin. For this purpose, NCI-H82 cells were used, a human lung carcinoma cell line which endogenously expresses DLL3 on the surface. […] A non-binding DARPin comprising SEQ ID NO: 22 was used as a negative control.
as §2, with “diluted in PBS, 2% FBS)” for “diluted)”, “C. This step was performed in absence and presence of 10 μM Human Serum Albumine (CSL Behring #150570).” for “C.”, “PBS, 2% FBS” for “PBS”, “LIVE/DEAD” for “LIVE/DEAD fixable”, “Biolegend #423106).” for “Thermo Fisher #L34957). This step was performed in absence and presence of 10 pM Human Serum Albumin (CSL Behring #150570).”, “Solution, TCL119,” for “Solution,”

[8] = molecular target: T2, Human DLL3 expressed on cells …; test: flow cytometry titration on HEK293T-hDLL3 cells, with HSA
Procedure: as §1, §2

[9] = molecular target: T2, Human DLL3 expressed on cells …; test: flow cytometry titration on NCI-H82 cells (endogenous DLL3), without HSA
Procedure: as §4
as §2, with “diluted in PBS, 2% FBS)” for “diluted)”, “C. This step was performed in absence and presence of 10 μM Human Serum Albumine (CSL Behring #150570).” for “C.”, “PBS, 2% FBS” for “PBS”, “LIVE/DEAD” for “LIVE/DEAD fixable”, “Biolegend #423106).” for “Thermo Fisher #L34957). This step was performed in absence and presence of 10 pM Human Serum Albumin (CSL Behring #150570).”, “Solution, TCL119,” for “Solution,”

human serum albumin [10] = molecular target: human serum albumin (Homo sapiens, UniProt P02768)
mouse serum albumin [11] = molecular target: T5, mouse serum albumin (Mus musculus, UniProt P07724); test: SPR binding of 2D DARPins with different HSA binders to mouse serum albumin (Example 3); settings: immobilized MSA, Cysteine capped with IAM, 1:1 Langmuir, Table 12
T5 construct: purchased Sigma-Aldrich
T5 sequence (P07724 25-608): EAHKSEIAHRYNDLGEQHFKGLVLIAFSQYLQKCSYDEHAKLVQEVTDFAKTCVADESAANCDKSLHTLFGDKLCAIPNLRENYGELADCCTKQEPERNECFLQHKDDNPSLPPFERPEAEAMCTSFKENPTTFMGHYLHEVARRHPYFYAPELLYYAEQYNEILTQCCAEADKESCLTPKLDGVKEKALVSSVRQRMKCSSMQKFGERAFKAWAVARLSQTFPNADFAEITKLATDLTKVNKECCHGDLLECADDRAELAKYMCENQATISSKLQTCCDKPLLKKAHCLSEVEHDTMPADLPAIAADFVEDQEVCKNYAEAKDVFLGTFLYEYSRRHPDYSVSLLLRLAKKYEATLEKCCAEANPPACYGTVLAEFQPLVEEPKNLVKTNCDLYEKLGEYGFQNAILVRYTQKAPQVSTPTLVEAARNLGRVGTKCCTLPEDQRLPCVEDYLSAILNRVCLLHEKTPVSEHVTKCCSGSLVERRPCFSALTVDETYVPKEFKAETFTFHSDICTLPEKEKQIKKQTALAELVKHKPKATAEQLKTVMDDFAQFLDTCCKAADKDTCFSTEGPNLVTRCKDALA

T4 sequence (P07724 25-608 limits assumed): as the sequence (P07724 25-608) above

Molecule | EC50 [1] | EC50 [2] | Kd [3] | koff [3] | kon [3] | EC50 [4] | Kd (human serum albumin [5]) | koff (human serum albumin [5]) | kon (human serum albumin [5]) | Kd (mouse serum albumin [6]) | koff (mouse serum albumin [6]) | kon (mouse serum albumin [6]) | EC50 [7] | EC50 [8] | EC50 [9] | Koff HSA (human serum albumin [10]) | Kon HSA (human serum albumin [10]) | fold higher binding affinity to HSA than the Low HSA affinity 2D DARPin (human serum albumin [10]; SPR KD comparison) | Koff MSA (mouse serum albumin [11]) | Kon MSA (mouse serum albumin [11])
Rova antibody | 0.1 nM | 0.3 nM | – | – | – | – | – | – | – | – | – | – | – | – | – | – | – | – | – | –
MAM283 (two domain ankyrin repeat protein, N-terminal His6-TEV tag) (designed binder, also called 2D DARPin) MRGSHHHHHHENLYFQDLGKKLLEAARAGQDDEVRELLKAGADVNAKDYFSHTPLHLAARNGHLKIVEVLLKAGADVNAKDFAGKTPLHLAADAGHLEIVEVLLKAGADVNAQDIFGKTPADIAADAGHEDIAEVLQKAAGSPTPTPTTPTPTPTTPTPTPTGSDLGKKLLAAAADGQDDEVRELLQAGADVNAKDLFGYTPLHLAAWRGHLEIVEVLLEAGADVNAKDAAGETPLHLAAWFGHLEIVEVLLEAGADVNAQDVQGKTPADLAAKEGHEDIAEVLQQAA | – | – | 0.953 nM | 1.79e-05 s⁻¹ | 18800 M⁻¹ s⁻¹ | 22.1 nM | 103 nM | 0.00924 s⁻¹ | 89500 M⁻¹ s⁻¹ | 507 nM | 0.0378 s⁻¹ | 74700 M⁻¹ s⁻¹ | 8.1 nM | 18.4 nM | 5.4 nM | – | – | – | – | –
MAM279 (two domain ankyrin repeat protein, N-terminal His6-TEV tag) (designed binder, Cleavage of the tag is not reported; also called 2D DARPin) MRGSHHHHHHENLYFQDLGKKLLEAARAGQDDEVRELLKAGADVNAKDYFSHTPLHLAARNGHLKIVEVLLKAGADVNAKDFAGKTPLHLAADAGHLEIVEVLLKAGADVNAQDIFGKTPADIAADAGHEDIAEVLQKAAGSPTPTPTTPTPTPTTPTPTPTGSDLGKKLLAAAAQGQDDEVRELLKAGANVNAKDLFGYTPLHLAAWRGHLEIVEVLLKAGADVNAKDAAGETPLHLAAWFGHLEIVEVLLKAGADVNAQDLQGKTPADLAAKEGHEDIAEVLQKAA | – | – | 0.616 nM | 1.44e-05 s⁻¹ | 23300 M⁻¹ s⁻¹ | 14.9 nM | 75 nM | 0.00923 s⁻¹ | 123000 M⁻¹ s⁻¹ | 367 nM | 0.0335 s⁻¹ | 91200 M⁻¹ s⁻¹ | 2.1 nM | 16.3 nM | 2.5 nM | – | – | – | – | –
MAM282 (two domain ankyrin repeat protein, N-terminal His6-TEV tag) (designed binder, also called 2D DARPin) MRGSHHHHHHENLYFQDLGKKLLEAARAGQDDEVRELLKAGADVNAKDYFSHTPLHLAARNGHLKIVEVLLKAGADVNAKDFAGKTPLHLAADAGHLEIVEVLLKAGADVNAQDIFGKTPADIAADAGHEDIAEVLQKAAGSPTPTPTTPTPTPTTPTPTPTGSDLGKKLLAAAREGQDDEVRELLKAGADVNAKDIWGQTPLHIAAWFGHLEIVEVLLKAGADVNAKDQTGHTPLHLAAKFGHLEIVEVLLKAGADVNAQDLLGRTPADLAAEEGHEDIAEVLQKAA | – | – | 3.03 nM | 3.79e-05 s⁻¹ | 12500 M⁻¹ s⁻¹ | 21.2 nM | 74.3 nM | 0.00889 s⁻¹ | 120000 M⁻¹ s⁻¹ | 335 nM | 0.0354 s⁻¹ | 106000 M⁻¹ s⁻¹ | 2.6 nM | 19.6 nM | 2.6 nM | – | – | – | – | –
High HSA affinity 2D DARPin: MAM160 with a GS at the N-terminus and a Cysteine-containing tag at the C-terminus (protein, Ankyrin repeat protein with tag (GS-MAM160-tag)) GSDLGKKLLEAARAGQDDEVRELLKAGADVNAKDYFSHTPLHLAARNGHLKIVEVLLKAGADVNAKDFAGKTPLHLAADAGHLEIVEVLLKAGADVNAQDIFGKTPADIAADAGHEDIAEVLQKAAGSPTPTPTTPTPTPTTPTPTPTGSDLGTKLLSAAADGQDDEVRELLQAGADVNAKDLFGYTPLHLAAWRGHLEIVEVLLEAGADVNAKDAAGLTPLHLAAWFGHLEIVEVLLEAGADVNAQDVQGVTPADLAAKEGHEDIAEVLQQAAGSGSC | – | – | – | – | – | – | – | – | – | – | – | – | – | – | – | 0.0311 s⁻¹ | 105000 M⁻¹ s⁻¹ | about 10 fold | 0.0345 s⁻¹ | 133000 M⁻¹ s⁻¹

— US20250332297A1, “DLL3-SPECIFIC BINDING CONSTRUCTS AND THEIR USE IN RADIOTHERAPY” (MOLECULAR PARTNERS AG, priority 2024, published 2025)
